Tests used:
[1] = molecular target: 1N:1E nanobody-enzyme megamolecule (one cutinase-5F7 nanobody fusion covalently linked to one SnapTag-yCD fusion) (yeast); assay: SEC
[2] = molecular target: 1N:1E nanobody-enzyme megamolecule (one cutinase-5F7 nanobody fusion covalently linked to one SnapTag-yCD fusion) (yeast); assay: enzyme activity against protein concentration
[3] = molecular target: 1N:1E nanobody-enzyme megamolecule (one cutinase-5F7 nanobody fusion covalently linked to one SnapTag-yCD fusion) (yeast); assay: negative-stain transmission electron microscopy
[4] = molecular target: 2N:1E nanobody-enzyme megamolecule (two cutinase-5F7 nanobody fusions covalently linked to one SnapTag-yCD fusion) (yeast); assay: SEC
[5] = molecular target: 2N:1E nanobody-enzyme megamolecule (two cutinase-5F7 nanobody fusions covalently linked to one SnapTag-yCD fusion) (yeast); assay: negative-stain transmission electron microscopy
[6] = molecular target: the molecule itself; assay: enzyme activity against protein concentration
SEC = molecular target: the molecule itself; assay: SEC

Molecule: 1N:1E nanobody-enzyme megamolecule (one cutinase-5F7 nanobody fusion covalently linked to one SnapTag-yCD fusion)
- stoichiometry N [1]: 2
- Kd [2]: 38 µM
- stoichiometry N [3]: 2

Molecule: 2N:1E nanobody-enzyme megamolecule (two cutinase-5F7 nanobody fusions covalently linked to one SnapTag-yCD fusion)
- stoichiometry N [4]: 2
- stoichiometry N [5]: 2

B1: SnapTag-yeast cytosine deaminase fusion protein (enzyme, UniProt Q12178 1-158, looked up)
chain: MVTGGMASKWDQKGMDIAYEEAALGYKEGGVPIGGCLINNKDGSVLGRGHNMRFQKGSATLHGEISTLENCGRLEGKVYKDTTLYTTLSPCDMCTGAIIMYGIPRCVVGENVNFKSKGEKYLQTRGHEVVVVDDERCKKIMKQFIDERPQDWFEDIGE
- Kd [6]: 12 µM
- stoichiometry N (SEC): 2

Reference: PMC8109025 (Bioconjugate chemistry, 2020)
